Laboratory results from US20260174875A1 (Novo Nordisk A/S, priority 2023, published 2026).
Each block holds one binder with its values, some of them ahead of it. Numbered stars: 1 amine (or outer) side, 2 acyl side, 3 side chain; on linkers, the order of the positions; unused ones are H or OH. Square brackets hold non-standard residues; d marks the D form. Side chains are listed from the residue outwards. * marks the point of attachment. Chem. 22 = C20 diacid gamma-Glu, O=C(O)CCCCCCCCCCCCCCCCCCC(=O)N[C@@H](CCC(=O)*)C(=O)O; C18 diacid = O=C(O)CCCCCCCCCCCCCCCCC(=O)*; γGlu = O=C(O)[C@H](CCC(=O)[*:2])N[*:1]; Chem. 28 = not defined here; Chem. 29 = not defined here; AEEA = NCCOCCOCC(=O)O; Aib = CC(C)(N)C(=O)O

Legend:
Assay in all cases: cell-based or functional assay
human GLP-1 receptor = human GLP-1 receptor (human, UniProt P43220 24-463)
[1] = target: T1, human amylin-3(a) receptor (human, UniProt P30988 25-474; O60896 24-148)
T1 sequence (looked up) 1: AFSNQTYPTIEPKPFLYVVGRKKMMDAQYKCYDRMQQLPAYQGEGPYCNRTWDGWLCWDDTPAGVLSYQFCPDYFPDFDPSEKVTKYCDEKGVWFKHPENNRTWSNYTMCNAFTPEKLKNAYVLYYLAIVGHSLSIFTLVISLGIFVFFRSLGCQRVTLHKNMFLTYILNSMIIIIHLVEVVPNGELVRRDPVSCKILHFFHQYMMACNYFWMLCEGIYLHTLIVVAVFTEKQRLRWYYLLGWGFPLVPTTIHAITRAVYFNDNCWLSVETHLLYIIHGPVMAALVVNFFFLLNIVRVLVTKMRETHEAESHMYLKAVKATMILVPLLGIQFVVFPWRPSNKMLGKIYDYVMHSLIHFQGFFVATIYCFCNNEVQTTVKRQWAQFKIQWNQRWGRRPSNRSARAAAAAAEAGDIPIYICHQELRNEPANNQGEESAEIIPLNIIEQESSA
T1 sequence (looked up) 2: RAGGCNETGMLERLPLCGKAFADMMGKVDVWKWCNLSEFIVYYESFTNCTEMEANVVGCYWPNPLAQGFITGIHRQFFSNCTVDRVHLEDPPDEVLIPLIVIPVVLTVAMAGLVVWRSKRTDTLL

human GIP receptor = target: T2, human GIP receptor (human, UniProt P48546 22-466)
T2 sequence (looked up): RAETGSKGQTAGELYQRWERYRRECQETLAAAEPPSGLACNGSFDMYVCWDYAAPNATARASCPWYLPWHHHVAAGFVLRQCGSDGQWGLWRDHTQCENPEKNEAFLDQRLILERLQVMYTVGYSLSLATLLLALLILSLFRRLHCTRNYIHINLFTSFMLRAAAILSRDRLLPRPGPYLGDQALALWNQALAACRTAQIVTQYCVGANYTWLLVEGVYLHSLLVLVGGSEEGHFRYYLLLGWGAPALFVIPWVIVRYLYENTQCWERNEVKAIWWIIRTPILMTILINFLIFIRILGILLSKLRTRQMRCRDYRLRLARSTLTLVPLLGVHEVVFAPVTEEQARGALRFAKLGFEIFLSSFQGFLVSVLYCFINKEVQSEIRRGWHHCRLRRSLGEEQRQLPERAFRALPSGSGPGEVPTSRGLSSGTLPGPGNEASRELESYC

B1: Compound 20 (peptide)
peptide: Y[Aib]EGTFTSDYSILLEEQAAREFIEWLLAGGPSK(Chem. 29)GASELSTAALGRLSAELHRLATLPRTETGSGSP-NH2
modifications: reading uncertain
hGLP-1R Potency, no HSA, EC50 [pM] (human GLP-1 receptor): 40.6 pM
hAMYR3 Potency, no HSA, EC50 [pM] [1]: 3.65 pM
hGIPR Potency, no HSA, EC50 [pM] (human GIP receptor): 4.82 pM

B7: Compound 18 (peptide)
peptide: Y[Aib]EGTFTSDYSILLEEQAAREFIEWLLAGGPSK(Chem. 29)GEASELSTAALGRLSAELHRLATLPRTETGSGSP-NH2
modifications: reading uncertain
hGLP-1R Potency, no HSA, EC50 [pM] (human GLP-1 receptor): 52.8 pM
hAMYR3 Potency, no HSA, EC50 [pM] [1]: 3.93 pM
hGIPR Potency, no HSA, EC50 [pM] (human GIP receptor): 7.25 pM

B8: Compound 13 (peptide)
peptide: Y[Aib]EGTFTSDYSILLEEQAAREFIEWLLAGGPSK([AEEA-AEEA-γGlu-C18 diacid])GAPPPSGGGGASELSTAALGRLSAELHRLATLPRTETGSGSP-NH2
hGLP-1R Potency, no HSA, EC50 [pM] (human GLP-1 receptor): 37.9 pM
hAMYR3 Potency, no HSA, EC50 [pM] [1]: 2.26 pM
hGIPR Potency, no HSA, EC50 [pM] (human GIP receptor): 2.4 pM

B10: Compound 34 (peptide)
peptide: Y[Aib]EGTFTSDYSILLEEQAAREFIEWLLAGGPSK(Chem. 28)GEASHLSTAQTQRLSAELHELATLPRTETGSGSP-NH2
modifications: reading uncertain
hGLP-1R Potency, no HSA, EC50 [pM] (human GLP-1 receptor): 21.7 pM
hAMYR3 Potency, no HSA, EC50 [pM] [1]: 6.81 pM
hGIPR Potency, no HSA, EC50 [pM] (human GIP receptor): 1.7 pM

Second part, the binder after the results:

hGLP-1R Potency, no HSA, EC50 [pM] (human GLP-1 receptor): 23.3 pM
hAMYR3 Potency, no HSA, EC50 [pM] [1]: 4.21 pM
hGIPR Potency, no HSA, EC50 [pM] (human GIP receptor): 1.97 pM
B2: Compound 35 (peptide)
peptide: Y[Aib]EGTFTSDYSILLEEQAAREFIEWLLAGGPSK(Chem. 28)GEASHLSTAQTARLSAELHELATLPRTETGSGSP-NH2
modifications: reading uncertain

hGLP-1R Potency, no HSA, EC50 [pM] (human GLP-1 receptor): 5.25 pM
hAMYR3 Potency, no HSA, EC50 [pM] [1]: 2.32 pM
hGIPR Potency, no HSA, EC50 [pM] (human GIP receptor): 2.39 pM
B3: Compound 66 (peptide)
peptide: H[Aib]HGTFTSDYSILLEEQAAREFIEWLLAGGPSK([AEEA-AEEA-γGlu-C18 diacid])GEASQLSTAALGRLSAELHHLATLPRTETGSGSP-NH2

hGLP-1R Potency, no HSA, EC50 [pM] (human GLP-1 receptor): 40.8 pM
hAMYR3 Potency, no HSA, EC50 [pM] [1]: 6.72 pM
hGIPR Potency, no HSA, EC50 [pM] (human GIP receptor): 5.02 pM
B4: Compound 41 (peptide)
peptide: Y[Aib]EGTFTSDYSILLEEQAAREFIEWLLAGGPSK(Chem. 22)GAPPPSGGGEASELSTAALGRLSAELHRLADLPRTETGSGSP-NH2

hGLP-1R Potency, no HSA, EC50 [pM] (human GLP-1 receptor): 61.3 pM
hAMYR3 Potency, no HSA, EC50 [pM] [1]: 3.42 pM
hGIPR Potency, no HSA, EC50 [pM] (human GIP receptor): 8.01 pM
B5: Compound 42 (peptide)
peptide: Y[Aib]EGTFTSDYSILLEEQAAREFIEWLLAGGPSSK(Chem. 22)APPPSGGGEASELSTAALGRLSAELHRLATLPRTETGSGSP-NH2

hGLP-1R Potency, no HSA, EC50 [pM] (human GLP-1 receptor): 3.68 pM
hAMYR3 Potency, no HSA, EC50 [pM] [1]: 3.8 pM
hGIPR Potency, no HSA, EC50 [pM] (human GIP receptor): 6.3 pM
B6: Compound 44 (peptide)
peptide: H[Aib]HGTFTSDYSILLEEQAAREFIEWLLAGGPSK(Chem. 28)GALAQTLGTNEASELSTAALGRLSAELHRLATLPRTETGSGSP-NH2
modifications: reading uncertain

hGLP-1R Potency, no HSA, EC50 [pM] (human GLP-1 receptor): 4.59 pM
hAMYR3 Potency, no HSA, EC50 [pM] [1]: 4.41 pM
hGIPR Potency, no HSA, EC50 [pM] (human GIP receptor): 5.42 pM
B9: Compound 46 (peptide)
peptide: H[Aib]HGTFTSDYSILLEEQAAREFIEWLLAGGPSK(Chem. 28)GAGQAPGQAPGASHLSTAALGRLSAELHRLATLPRTETGSGSP-NH2
modifications: reading uncertain
